Measured values from patent US20240417469A1 (CONCEPT TO MEDICINE BIOTECH, published 2024).

B1: Hu153A6B1-9 (antibody, V domains shown)
VH: EVQLQESGPGLVKPSETLSLTCTVSGGSISSYNIHWVRQPPGKGLEWMGRIRYNGDTSYNSALKSRLTISRDTSKNQFSLKLSSVTAADTAVYYCARGPYGGSREPLFDYWGQGTMVTVSS
VL: DIQMTQSPSSLSASVGDRVTITCKTSQNINKYLNWFQQKPGKAPKLLIYTTNNLQTGIPSRFSGSGSGTDFTLTISSLQPEDFATYYCLQHGSGYTFGQGTKLEIK
notes: humanized mAb
B2: Hu153A6B1-1 (antibody, V domains shown)
VH: EVQLQESGPGLVKPSETLSLTCTVSGGSISSYNIHWIRQPPGKGLEWIGRIRYNGDTSYNSALKSRVTISVDTSKNQFSLKLSSVTAADTAVYYCARGPYGGSREPLFDYWGQGTMVTVSS
VL: DIQMTQSPSSLSASVGDRVTITCKTSQNINKYLNWYQQKPGKAPKLLIYTTNNLQTGVPSRFSGSGSGTDFTLTISSLQPEDFATYYCLQHGSGYTFGQGTKLEIK
notes: humanized mAb
B3: Hu192A7B9-22 (antibody, V domains shown)
VH: EVQLQESGPGLVKPSETLSLTCTVSGGSISSYNVHWVRQPPGKGLEWMGRMRYNGDTSYNSALKSRLTISRDTSKNQFSLKLSSVTAADTAVYYCTRGPRGGYYSALFDYWGQGTMVTVSS
VL: DIQMTQSPSSLSASVGDRVTITCKASQNINRYLNWYQQKPGKAPKVLISIANSLQTGIPSRFSGSGSGTDFTLTISSLQPEDFATYFCLQHNSWYTFGQGTKLEIK
notes: humanized mAb
B4: Hu192A7B9-24 (antibody, V domains shown)
VH: EVQLQESGPGLVKPSETLSLTCTVSGFSLTSYNVHWVRQPPGKGLEWMGRMRYNGDTSYNSALKSRLTISRDTSKNQVSLKLSSVTAADTAVYYCTRGPRGGYYSALFDYWGQGTMVTVSS
VL: DIQMTQSPSSLSASVGDRVTITCKASQNINRYLNWYQQKPGKAPKVLISIANSLQTGIPSRFSGSGSGTDFTLTISSLQPEDFATYFCLQHNSWYTFGQGTKLEIK
notes: humanized mAb
B5: Hu153A6B1-5 (antibody, V domains shown)
VH: EVQLQESGPGLVKPSETLSLTCTVSGFSISSYNIHWVRQPPGKGLEWMGRIRYNGDTSYNSALKSRLTISRDTSKNQVSLKLSSVTAADTAVYYCTRGPYGGSREPLFDYWGQGTMVTVSS
VL: DIQMTQSPSSLSASVGDRVTITCKTSQNINKYLNWYQQKPGKAPKLLIYTTNNLQTGVPSRFSGSGSGTDFTLTISSLQPEDFATYYCLQHGSGYTFGQGTKLEIK
notes: humanized mAb
B6: Hu192A7B9-20 (antibody, V domains shown)
VH: EVQLQESGPGLVKPSETLSLTCTVSGGSISSYNVHWVRQPPGKGLEWIGRMRYNGDTSYNSALKSRVTISRDTSKNQFSLKLSSVTAADTAVYYCARGPRGGYYSALFDYWGQGTMVTVSS
VL: DIQMTQSPSSLSASVGDRVTITCKASQNINRYLNWYQQKPGKAPKVLISIANSLQTGIPSRFSGSGSGTDFTLTISSLQPEDFATYFCLQHNSWYTFGQGTKLEIK
notes: humanized mAb
B7: Hu192A7B9-21 (antibody, V domains shown)
VH: EVQLQESGPGLVKPSETLSLTCTVSGGSISSYNVHWVRQPPGKGLEWMGRMRYNGDTSYNSALKSRLTISRDTSKNQFSLKLSSVTAADTAVYYCARGPRGGYYSALFDYWGQGTMVTVSS
VL: DIQMTQSPSSLSASVGDRVTITCKASQNINRYLNWYQQKPGKAPKVLISIANSLQTGIPSRFSGSGSGTDFTLTISSLQPEDFATYFCLQHNSWYTFGQGTKLEIK
notes: humanized mAb
B8: Hu192A7B9-23 (antibody, V domains shown)
VH: EVQLQESGPGLVKPSETLSLTCTVSGFSISSYNVHWVRQPPGKGLEWMGRMRYNGDTSYNSALKSRLTISRDTSKNQVSLKLSSVTAADTAVYYCTRGPRGGYYSALFDYWGQGTMVTVSS
VL: DIQMTQSPSSLSASVGDRVTITCKASQNINRYLNWYQQKPGKAPKVLISIANSLQTGIPSRFSGSGSGTDFTLTISSLQPEDFATYFCLQHNSWYTFGQGTKLEIK
notes: humanized mAb
B9: Hu153A6B1-6 (antibody, V domains shown)
VH: EVQLQESGPGLVKPSETLSLTCTVSGFSLTSYNIHWVRQPPGKGLEWMGRIRYNGDTSYNSALKSRLTISRDTSKNQVSLKLSSVTAADTAVYYCTRGPYGGSREPLFDYWGQGTMVTVSS
VL: DIQMTQSPSSLSASVGDRVTITCKTSQNINKYLNWYQQKPGKAPKLLIYTTNNLQTGVPSRFSGSGSGTDFTLTISSLQPEDFATYYCLQHGSGYTFGQGTKLEIK
notes: humanized mAb
B10: Hu192A7B9-19 (antibody, V domains shown)
VH: EVQLQESGPGLVKPSETLSLTCTVSGGSISSYNVHWIRQPPGKGLEWIGRMRYNGDTSYNSALKSRVTISVDTSKNQFSLKLSSVTAADTAVYYCARGPRGGYYSALFDYWGQGTMVTVSS
VL: DIQMTQSPSSLSASVGDRVTITCKASQNINRYLNWYQQKPGKAPKVLISIANSLQTGIPSRFSGSGSGTDFTLTISSLQPEDFATYFCLQHNSWYTFGQGTKLEIK
notes: humanized mAb
B11: Hu153A6B1-2 (antibody, V domains shown)
VH: EVQLQESGPGLVKPSETLSLTCTVSGGSISSYNIHWVRQPPGKGLEWIGRIRYNGDTSYNSALKSRVTISRDTSKNQFSLKLSSVTAADTAVYYCARGPYGGSREPLFDYWGQGTMVTVSS
VL: DIQMTQSPSSLSASVGDRVTITCKTSQNINKYLNWYQQKPGKAPKLLIYTTNNLQTGVPSRFSGSGSGTDFTLTISSLQPEDFATYYCLQHGSGYTFGQGTKLEIK
notes: humanized mAb
B12: Hu153A6B1-8 (antibody, V domains shown)
VH: EVQLQESGPGLVKPSETLSLTCTVSGGSISSYNIHWVRQPPGKGLEWIGRIRYNGDTSYNSALKSRVTISRDTSKNQFSLKLSSVTAADTAVYYCARGPYGGSREPLFDYWGQGTMVTVSS
VL: DIQMTQSPSSLSASVGDRVTITCKTSQNINKYLNWFQQKPGKAPKLLIYTTNNLQTGIPSRFSGSGSGTDFTLTISSLQPEDFATYYCLQHGSGYTFGQGTKLEIK
notes: humanized mAb
B13: Hu192A7B9-18 (antibody, V domains shown)
VH: EVQLQESGPGLVKPSETLSLTCTVSGFSLTSYNVHWVRQPPGKGLEWMGRMRYNGDTSYNSALKSRLTISRDTSKNQVSLKLSSVTAADTAVYYCTRGPRGGYYSALFDYWGQGTMVTVSS
VL: DIQMTQSPSSLSASVGDRVTITCKASQNINRYLNWYQQKPGKAPKLLISIANSLQTGIPSRFSGSGSGTDFTLTISSLQPEDFATYYCLQHNSWYTFGQGTKLEIK
notes: humanized mAb
B14: Hu153A6B1-4 (antibody, V domains shown)
VH: EVQLQESGPGLVKPSETLSLTCTVSGGSISSYNIHWVRQPPGKGLEWMGRIRYNGDTSYNSALKSRLTISRDTSKNQFSLKLSSVTAADTAVYYCTRGPYGGSREPLFDYWGQGTMVTVSS
VL: DIQMTQSPSSLSASVGDRVTITCKTSQNINKYLNWYQQKPGKAPKLLIYTTNNLQTGVPSRFSGSGSGTDFTLTISSLQPEDFATYYCLQHGSGYTFGQGTKLEIK
notes: humanized mAb
B15: Hu153A6B1-3 (antibody, V domains shown)
VH: EVQLQESGPGLVKPSETLSLTCTVSGGSISSYNIHWVRQPPGKGLEWMGRIRYNGDTSYNSALKSRLTISRDTSKNQFSLKLSSVTAADTAVYYCARGPYGGSREPLFDYWGQGTMVTVSS
VL: DIQMTQSPSSLSASVGDRVTITCKTSQNINKYLNWYQQKPGKAPKLLIYTTNNLQTGVPSRFSGSGSGTDFTLTISSLQPEDFATYYCLQHGSGYTFGQGTKLEIK
notes: humanized mAb
B16: Hu153A6B1-7 (antibody, V domains shown)
VH: EVQLQESGPGLVKPSETLSLTCTVSGGSISSYNIHWIRQPPGKGLEWIGRIRYNGDTSYNSALKSRVTISVDTSKNQFSLKLSSVTAADTAVYYCARGPYGGSREPLFDYWGQGTMVTVSS
VL: DIQMTQSPSSLSASVGDRVTITCKTSQNINKYLNWFQQKPGKAPKLLIYTTNNLQTGIPSRFSGSGSGTDFTLTISSLQPEDFATYYCLQHGSGYTFGQGTKLEIK
notes: humanized mAb

Columns and labels:
[1] = molecular target: T1, human CD3 on cells (human PBMC; Jurkat TCR/CD3 NFAT reporter cells) (human, UniProt P07766 23-207; P04234 22-171; P09693 23-182); test: cell-based or functional assay
[2] = molecular target: T1, human CD3 on cells (human PBMC; Jurkat …); test: cell-based or functional assay; remark: listed apart in the source
human CD3 protein = molecular target: T2, human CD3 protein (human, UniProt P07766 23-126; P04234 22-105); test: ELISA, plate-coated CD3;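 note: binding to plate-immobilized human CD3 protein, bound antibody detected with peroxidase-labelled anti-human IgG and TMB, read as absorbance at 450 nm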
T2 construct: ELISA coating protein; also called Human CD3D & CD3E Heterodimer Protein

[3] = molecular target: T3, recombinant CD3D&E protein (human CD3-his tag) (human, UniProt P04234 22-105; P07766 23-126, limits assumed); test: SPR Biacore, Ab captured on Protein A;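 note: humanized antibodies on a Protein A chip, human CD3-his analyte flowed over in serial dilutions for 3 min, dissociation tracked 120–360 s on a Biacore T200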
T3 construct: Analyte in Biacore; also called CD3D&E-His; CD3d&ε-His
Throughout, for Emax: unit not given here.

T3 sequence (P04234 22-105 limits assumed, chain 1 of 2): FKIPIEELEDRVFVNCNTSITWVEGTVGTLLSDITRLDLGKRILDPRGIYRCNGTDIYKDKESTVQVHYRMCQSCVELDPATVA
T3 sequence (P07766 23-126 limits assumed, chain 2 of 2): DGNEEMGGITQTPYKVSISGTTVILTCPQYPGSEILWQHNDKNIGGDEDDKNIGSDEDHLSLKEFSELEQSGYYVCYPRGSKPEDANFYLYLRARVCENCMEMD
T1 sequence (P07766 23-207, chain 1 of 3): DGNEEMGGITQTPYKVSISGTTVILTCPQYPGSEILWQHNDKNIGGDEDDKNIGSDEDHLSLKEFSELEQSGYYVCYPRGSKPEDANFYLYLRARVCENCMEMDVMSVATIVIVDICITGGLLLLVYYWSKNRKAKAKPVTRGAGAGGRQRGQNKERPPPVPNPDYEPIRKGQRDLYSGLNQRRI
T1 sequence (P04234 22-171, chain 2 of 3): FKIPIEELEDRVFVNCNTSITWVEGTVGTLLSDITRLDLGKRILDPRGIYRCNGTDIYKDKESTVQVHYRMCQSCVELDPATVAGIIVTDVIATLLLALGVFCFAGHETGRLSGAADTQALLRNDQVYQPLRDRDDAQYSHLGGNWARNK
T1 sequence (P09693 23-182, chain 3 of 3): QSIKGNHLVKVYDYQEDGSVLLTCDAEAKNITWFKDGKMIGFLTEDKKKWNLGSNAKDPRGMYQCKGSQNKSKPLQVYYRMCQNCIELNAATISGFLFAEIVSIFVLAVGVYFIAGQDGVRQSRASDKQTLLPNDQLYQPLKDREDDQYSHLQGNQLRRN
T2 sequence (P07766 23-126 limits assumed, chain 1 of 2): as the sequence (P07766 23-126 limits assumed, chain 2 of 2) above
T2 sequence (P04234 22-105 limits assumed, chain 2 of 2): as the sequence (P04234 22-105 limits assumed, chain 1 of 2) above

| Binder | % of SP34 [1] [%] | Emax [1] | CD3-NFAT Activity by CD3 mAb [2] [% SP34] | EC50 (human CD3 protein) [ng/mL] | Kd [3] [nM] | koff [3] [s⁻¹] | kon [3] [M⁻¹ s⁻¹] |
| --- | --- | --- | --- | --- | --- | --- | --- |
| B1 | 73.6 | 4310 | > 50 | 3.35 | 61.7 | 0.0344 | 558000 |
| B2 | 19.8 | 1160 | ≤ 50 | 16.3 | 8.81 | 0.00391 | 444000 |
| B3 |  |  | > 50 | 7.12 | 55 | 0.00462 | 83900 |
| B4 |  |  | > 50 | 20.2 | 9.21 | 0.000594 | 64500 |
| B5 | 78.5 | 4600 | > 50 | 3.23 | 19.4 | 0.00177 | 91300 |
| B6 |  |  | > 50 | 5.15 | 60.3 | 0.00561 | 93100 |
| B7 |  |  | > 50 | 5.46 | 55.1 | 0.00499 | 90600 |
| B8 |  |  | > 50 | 15.8 | 12.3 | 0.000862 | 70200 |
| B9 | 71.9 | 4210 | > 50 | 2.99 | 21.1 | 0.00181 | 85800 |
| B10 |  |  | > 50 | 4.98 | 34.5 | 0.00543 | 157000 |
| B11 | 42.6 | 2500 | ≤ 50 | 3.39 | 50 | 0.0201 | 402000 |
| B12 | 70.5 | 4130 | > 50 | 2.95 | 49 | 0.0396 | 808000 |
| B13 |  |  | > 50 | 8.83 | 56 | 0.00317 | 56500 |
| B14 | 44.1 | 2580 | ≤ 50 | 3.72 | 58.5 | 0.0195 | 334000 |
| B15 | 45.5 | 2660 | ≤ 50 | 3.87 | 59.5 | 0.0241 | 406000 |
| B16 | 26.9 | 1580 | ≤ 50 | 6.78 | 45.2 | 0.0142 | 314000 |
